Consider four molecules from patent publication US20250171562A1 (ALK ABELL, published 2025).

The target of one assay is T1, biotinylated IgE Fc (UniProt P01854-1 104-428, biotinylated).
T1 construct: also called IgE Fc (made in-house ALK, Denmark)
The assay is described as follows: BLI (Octet), IgE Fc on sensor, 1:1 fit. As to the method:
The biotinylated IgE Fc (made in-house ALK, Denmark) was immobilised on SAX (High precision streptavidin) sensors (FortéBIO) to max 1 nm. The association (240 s) and dissociation (600 s) were measured for the analytes in a serial dilution (from 10 nM to 0.37 nM). Data were subtracted to blank reference sensors exposed to the same serial analyte dilutions, aligned, and analysed in the Octet Data Analysis HT 11.1 Software (FortéBIO) using a 1:1 fitting model.
Background: In BLI a coated tip is dipped into the sample, and binding shifts an interference pattern.

A further assay concerns the target T2, recombinant human IgE (human, UniProt P01854-1 1-428).
T2 construct: made in-house (ALK); preloaded on immobilised FcεRIα in the displacement ELISA
The assay is described as follows: IgE-FcεRIα displacement ELISA. The procedure, abridged: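 sdAbs at pM–μM were incubated 1 h on preformed complexes of 13 ng/ml recombinant human IgE with avi-tag-biotinylated human FcεRIα captured on streptavidin.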

Assay [1] addresses T3, IgE-Fc Cε3-4 (human, UniProt P01854-1 209-428, limits assumed).
T3 construct: domain: Cε3-Cε4; coated at 2 µg/mL in the ELISA; also called IgE-Fc Cε3-Cε4
The assay is described as follows: ELISA, immobilised IgE-Fc Cε3-4. As to the method: (§1) SdAb monomers of interest (table 1) and identified in example 2 were amplified from pNT plasmid by PCR and recloned in pET22b plasmid by SLICE cloning reaction. Thereby, a pelB signal sequence and a C-terminal his/HA tag were added to the sdAbs allowing for secretion into periplasmic space and subsequent purification and detection. SdAbs were expressed in E. coli Rosetta (DE3) cells using 2YT media. Expression was induced in early exponential phase with 0.5 mM IPTG and carried overnight at 20° C.-25° C. Purification of sdAbs from supernatant or supernatant+periplasmic extract was performed by IMAC using HisTrap excel column (Cytiva) as first step and by SEC with a Hiload 16-600 Superdex® 75 pg (Cytiva) column as second step. Size and purity of each sdAbs were evaluated on a 15% acrylamide SDS-PAGE. Then, immunoreactivity of sdAbs against immobilized IgE-Fc Cε2-4 and IgE-Fc Cε3-4 was analysed by ELISA. IgE-Fc were coated at 2 μg/mL overnight in a Nunc MaxiSorp plate (ThermoFisher). After blocking sdAbs were added at a 1:10 dilution in TBS and incubated 3h at room temperature. Detection was performed using a mouse anti-HA antibody (ThermoFisher) and an anti-mouse IgG AP conjugated (Sigma Aldrich).
In general terms: ELISA stands for enzyme-linked immunosorbent assay.

For assay [2], the target named is T4, biotinylated IgE: FcεRIα complex (UniProt P01854 104-428; P12319 26-205, biotinylated).
T4 construct: preformed complex used for yeast display titration and deep mutational scanning; also called IgE-Fc/FcεRIα; IgE-Fc Cε2-Cε4/FcεRIα complex
The assay is described as follows: yeast display titration, flow cytometry. A general note: A flow cytometer gives signals particle by particle.

The next assay has as its target T5, IgE-Fc Cε2-4 (human, UniProt P01854-1 104-428, limits assumed).
T5 construct: domain: Cε2-Cε4; coated at 2 µg/mL in the ELISA; also called IgE-Fc Cε2-Cε4
The assay is described as follows: ELISA, immobilised IgE-Fc. As to the method: as §1

Assay [3] deals with T3, IgE-Fc Cε3-4. The assay is described as follows: ELISA, immobilised IgE-Fc. As to the method:
as §1

Bounds are passed on as bounds.

T1 sequence (P01854 other isoform, or with tags, fused parts or gaps): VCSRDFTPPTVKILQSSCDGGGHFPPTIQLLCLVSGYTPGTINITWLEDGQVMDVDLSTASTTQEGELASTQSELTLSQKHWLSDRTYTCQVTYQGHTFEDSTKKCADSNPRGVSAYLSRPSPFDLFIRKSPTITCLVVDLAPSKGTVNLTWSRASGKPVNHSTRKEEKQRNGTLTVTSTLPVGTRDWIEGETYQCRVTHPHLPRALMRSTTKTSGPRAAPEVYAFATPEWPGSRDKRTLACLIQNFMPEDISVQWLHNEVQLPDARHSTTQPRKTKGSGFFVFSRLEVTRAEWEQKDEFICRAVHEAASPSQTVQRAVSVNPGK
T2 sequence (P01854 other isoform, or with tags, fused parts or gaps): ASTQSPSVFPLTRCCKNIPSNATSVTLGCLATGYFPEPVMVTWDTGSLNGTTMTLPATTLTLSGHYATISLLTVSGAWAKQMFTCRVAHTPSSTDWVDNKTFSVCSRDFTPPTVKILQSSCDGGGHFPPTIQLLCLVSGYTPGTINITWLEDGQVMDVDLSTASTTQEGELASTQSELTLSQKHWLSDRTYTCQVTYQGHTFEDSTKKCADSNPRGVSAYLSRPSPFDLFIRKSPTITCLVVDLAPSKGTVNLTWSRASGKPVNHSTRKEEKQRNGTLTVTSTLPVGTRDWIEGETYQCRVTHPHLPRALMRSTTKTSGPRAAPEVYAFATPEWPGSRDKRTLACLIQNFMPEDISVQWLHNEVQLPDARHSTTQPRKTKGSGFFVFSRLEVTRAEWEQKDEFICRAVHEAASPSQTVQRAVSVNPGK
T3 sequence (P01854 other isoform, or with tags, fused parts or gaps limits assumed): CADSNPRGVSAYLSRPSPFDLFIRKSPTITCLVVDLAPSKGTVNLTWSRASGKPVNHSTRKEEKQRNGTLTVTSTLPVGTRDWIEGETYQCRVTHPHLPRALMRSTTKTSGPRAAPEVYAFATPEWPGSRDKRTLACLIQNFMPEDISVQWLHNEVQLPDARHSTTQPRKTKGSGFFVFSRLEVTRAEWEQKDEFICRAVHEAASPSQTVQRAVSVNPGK
T4 sequence (P12319 26-205, chain 2 of 2): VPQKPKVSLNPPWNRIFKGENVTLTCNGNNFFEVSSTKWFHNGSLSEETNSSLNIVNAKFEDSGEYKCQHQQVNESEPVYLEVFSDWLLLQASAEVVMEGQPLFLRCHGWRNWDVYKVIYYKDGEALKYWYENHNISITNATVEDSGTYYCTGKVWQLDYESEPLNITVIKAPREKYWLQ

B1: sdAb D2 (VHH)
VHH: DVQLQESGGGLVEAGGSLRLSCVASGRTFSGWSMGWFRQAPGKEREFVAAISWVGSWIGGTVYSNSVKGRFTISRDNARTTVYLQMNSLKPEDTAVYFCAAANSETPRIFASEYDYWGQGTQVTVS
By Kd is commonly meant the free concentration of one partner at which half of the binding sites on the other are occupied at equilibrium, for simple one-to-one binding. Read a low Kd as a tighter complex. What is called koff is a measure of how fast the partners let go of each other. The low end stands for a long-lived complex, the high end for a short-lived complex. One may read the kon as the rate constant with which the complex forms. A higher kon goes with fast association. By EC50 is commonly meant the midpoint of the concentration-response curve. With B1, in the assay with biotinylated IgE Fc, the Kd turned out to be 0.081 µM, the koff was found to be 0.02 s⁻¹ and the kon amounted to 240000 M⁻¹ s⁻¹. Further, in the assay with recombinant human IgE, the EC50 came to 10 µM and the Max effect was found to be 50%. Besides, the binding result with IgE-Fc Cε3-4 [1] is on record as “no binding”.

B2: sdAb A1 (VHH)
VHH: EVQLLESGGGLVQPGGSLRLSCAASGFTFGNYDMAWVRQAPGKRPEWVSSIDTGGDITHYADSVKGRFTISRDNAKNTLYLQMNSLRPEDTAVYWCATDEEYALGPNEFDYYGQGTLVTVSS
notes: also called sdAb 026; IGE026
In the assay with biotinylated IgE Fc, B2 gave a Kd of 0.00019 µM, an off-rate constant (koff) of 0.0002 s⁻¹ and an on-rate constant (kon) of 1e+06 M⁻¹ s⁻¹. Moreover, in the assay with recombinant human IgE, the EC50 was determined as 0.8 µM and the Max effect is above 95%. Further, the “apparent Kd (pooled screen)” value in assay [2] is 0.000345 µM.

B3: sdAb G1 (VHH)
VHH: DVQLQESGGGLVQAGGSLRLSCAASGFIVSDNVMSWYRQAPGKQRDMVATIMLNGDTAHADSVKGRFTISRDHAKNTVYLQMNSLKPEDTAVYYCNARDSMLEPGRGAWGQGTLVTVS
Take B3: the binding result with IgE-Fc Cε2-4 and with IgE-Fc Cε3-4 [3] was “binds” in each case.

B4: sdAb E4 (VHH)
VHH: DVQLQESGGGLVQPGGSLRLSCAASGFRFSNYAMRWYRQAPGKEREFVARISSTGFITRYTASVRDRFTISRDNDKNMMYLQLNKLTPQDTAHYYCNAESTDYWGQGTQVTVS
Consider B4, for which the binding result with IgE-Fc Cε3-4 [1] is reported as “no binding”; with IgE-Fc Cε2-4 it was “binds”.
